Laboratory results taken from patent publication US20170119830A1 (REGENTS OF THE UNIVERSITY OF MINNESOTA, published 2017).

Columns and labels:
mesothelin (MSLN) = mesothelin (MSLN) (UniProt Q13421); test: 4 C cell binding assay on Panc-1 (MSLN strongly-positive) cells, E4 qPCR
CD133 (Prominin-1) [1] = biological target: T1, CD133 (Prominin-1) (UniProt O43490 20-865); test: cell binding assay with and without anti-CD133 antibody (FIG. 17)
T1 construct: whole, on cells; the cell lines are human
T1 sequence: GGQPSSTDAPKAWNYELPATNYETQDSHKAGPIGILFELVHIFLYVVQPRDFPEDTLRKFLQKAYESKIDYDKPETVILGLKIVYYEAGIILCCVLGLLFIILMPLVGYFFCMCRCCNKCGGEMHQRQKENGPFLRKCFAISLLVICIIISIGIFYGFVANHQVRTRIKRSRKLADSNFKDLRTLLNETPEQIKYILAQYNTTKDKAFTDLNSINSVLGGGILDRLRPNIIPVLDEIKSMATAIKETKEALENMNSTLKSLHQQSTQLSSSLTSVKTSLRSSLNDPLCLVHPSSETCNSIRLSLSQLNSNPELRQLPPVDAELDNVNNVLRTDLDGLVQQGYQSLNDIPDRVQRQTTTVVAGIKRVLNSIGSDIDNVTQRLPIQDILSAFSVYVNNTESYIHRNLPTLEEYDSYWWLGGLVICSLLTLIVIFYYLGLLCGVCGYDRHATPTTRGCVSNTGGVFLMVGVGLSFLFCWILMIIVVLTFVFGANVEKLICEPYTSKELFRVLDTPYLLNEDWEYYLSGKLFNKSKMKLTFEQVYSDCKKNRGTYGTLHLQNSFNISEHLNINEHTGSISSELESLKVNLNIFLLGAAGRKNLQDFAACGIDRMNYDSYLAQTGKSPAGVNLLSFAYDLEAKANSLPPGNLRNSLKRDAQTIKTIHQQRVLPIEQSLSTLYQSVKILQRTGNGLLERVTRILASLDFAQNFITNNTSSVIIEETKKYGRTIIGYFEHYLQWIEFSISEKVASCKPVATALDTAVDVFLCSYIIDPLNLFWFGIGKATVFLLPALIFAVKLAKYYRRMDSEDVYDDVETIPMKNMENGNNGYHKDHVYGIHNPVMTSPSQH

CD133 (Prominin-1) [2] = biological target: T1, CD133 (Prominin-1); test: cell-based or functional assay
[3] = biological target: T2, AdML-5WT, control adenovirus with the native (wild type) Ad5 fiber (adenovirus type 5, UniProt P11818 1-581); test: cell binding assay, 10 vp/cell, 2 h, 4 C, E4 qPCR (FIG. 26)
T2 construct: The whole virion stood in the assays; also called AdML-WT; wild type fiber virus
T2 sequence: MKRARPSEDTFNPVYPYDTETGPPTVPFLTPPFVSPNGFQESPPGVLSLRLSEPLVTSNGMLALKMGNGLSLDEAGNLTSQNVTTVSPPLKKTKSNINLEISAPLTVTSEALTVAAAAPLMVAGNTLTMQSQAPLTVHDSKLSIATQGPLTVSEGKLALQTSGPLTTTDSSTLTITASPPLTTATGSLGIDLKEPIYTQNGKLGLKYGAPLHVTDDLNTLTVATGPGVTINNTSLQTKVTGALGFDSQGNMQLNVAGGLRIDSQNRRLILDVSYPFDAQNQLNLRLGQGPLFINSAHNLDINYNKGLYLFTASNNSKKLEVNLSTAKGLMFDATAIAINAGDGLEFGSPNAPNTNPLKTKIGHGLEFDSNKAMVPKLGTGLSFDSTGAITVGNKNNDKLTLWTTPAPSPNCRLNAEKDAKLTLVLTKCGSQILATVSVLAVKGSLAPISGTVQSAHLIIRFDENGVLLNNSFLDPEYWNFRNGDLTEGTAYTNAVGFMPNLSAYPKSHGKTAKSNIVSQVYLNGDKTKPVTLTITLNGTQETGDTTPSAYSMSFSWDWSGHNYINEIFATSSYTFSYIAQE

**Q.** How did the fold binding against AdMG553 (mesothelin (MSLN)) turn out when “AdML-VTIN, adenovirus with the VTINRSA (SEQ ID NO:12) targeting motif in the AB-loop of the fiber knob (from UniProt P11818 1-410; P11818 418-581)” was run?
**A.** 2 fold

**Q.** What about the fold binding against AdML-5WT (mesothelin (MSLN)) of the same molecule?
**A.** 5 fold

B1: AdML-TYML, adenovirus with the TYMLSRN (SEQ ID NO:106) targeting motif in the AB-loop of the fiber knob (other)
chain: MKRARPSEDTFNPVYPYDTETGPPTVPFLTPPFVSPNGFQESPPGVLSLRLSEPLVTSNGMLALKMGNGLSLDEAGNLTSQNVTTVSPPLKKTKSNINLEISAPLTVTSEALTVAAAAPLMVAGNTLTMQSQAPLTVHDSKLSIATQGPLTVSEGKLALQTSGPLTTTDSSTLTITASPPLTTATGSLGIDLKEPIYTQNGKLGLKYGAPLHVTDDLNTLTVATGPGVTINNTSLQTKVTGALGFDSQGNMQLNVAGGLRIDSQNRRLILDVSYPFDAQNQLNLRLGQGPLFINSAHNLDINYNKGLYLFTASNNSKKLEVNLSTAKGLMFDATAIAINAGDGLEFGSPNAPNTNPLKTKIGHGLEFDSNKAMVPKLGTGLSFDSTGAITVGNKNNDKLTLWTTPAPSPNTYMLSRNDAKLTLVLTKCGSQILATVSVLAVKGSLAPISGTVQSAHLIIRFDENGVLLNNSFLDPEYWNFRNGDLTEGTAYTNAVGFMPNLSAYPKSHGKTAKSNIVSQVYLNGDKTKPVTLTITLNGTQETGDTTPSAYSMSFSWDWSGHNYINEIFATSSYTFSYIAQE
notes: also called TYML virus; Ad-TYML
**Q.** What does the source list for B1?
**A.** fold binding, CD133(+) against CD133(-) 293 cells (CD133 (Prominin-1) [1]): 4 fold; viral copy number after infection (E4 qPCR) (CD133 (Prominin-1) [2]): > 5 fold

B2: Coxsackie adenovirus receptor (CAR) (receptor)
chain: LSITTPEEMIEKAKGETAYLPCKFTLSPEDQGPLDIEWLISPADNQKVDQVIILYSGDKIYDDYYPDLKGRVHFTSNDLKSGDASINVTNLQLSDIGTYQCKVKKAPGVANKKIHLVVLVKPSGARCYVDGSEEIGSDFKIKCEPKEGSLPLQYEWQKLSDSQKMPTSWLAEMTSSVISVKNASSEYSGTYSCTVRNRVGSDQCLLRLNVVPPSNKAGLIAGAIIGTLLALALIGLIIFCCRKKRREEKYEKEVHHDIREDVPPPKSRTSTARSYIGSNHSSLGSMSPSNMEGYSKTQYNQVPSEDFERTPQSPTLPPAKVAAPNLSRMGAIPVMIPAQSKDGSIV
notes: whole, on cells; the cell lines are human; also called Ad5 receptor; natural Ad receptor
**Q.** Does B2 bind [3]?
**A.** binds
